This note sets out measurements from patent US20260174875A1 (Novo Nordisk A/S, priority 2023, published 2026).

Assay in all cases: cell-based or functional assay
Experiment [1] concerns the target T1, human GLP-1 receptor (human, UniProt P43220 24-463).
Experiment [2] has as its target T2, human GIP receptor (human, UniProt P48546 22-466).
T2 sequence (looked up): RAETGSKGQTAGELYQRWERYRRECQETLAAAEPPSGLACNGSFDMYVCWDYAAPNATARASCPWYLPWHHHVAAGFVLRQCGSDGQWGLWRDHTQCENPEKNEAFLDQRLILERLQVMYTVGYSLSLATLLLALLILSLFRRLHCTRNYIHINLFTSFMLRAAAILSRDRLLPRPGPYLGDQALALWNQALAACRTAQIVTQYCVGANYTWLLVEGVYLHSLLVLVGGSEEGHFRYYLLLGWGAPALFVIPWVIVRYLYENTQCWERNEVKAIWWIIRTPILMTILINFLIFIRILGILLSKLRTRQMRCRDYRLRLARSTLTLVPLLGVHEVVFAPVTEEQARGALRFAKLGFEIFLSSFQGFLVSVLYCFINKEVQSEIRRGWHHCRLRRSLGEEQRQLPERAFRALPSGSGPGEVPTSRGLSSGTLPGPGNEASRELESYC

The target in experiment [3] is T3, human amylin-3(a) receptor (human, UniProt P30988 25-474; O60896 24-148).
T3 sequence (looked up) 1: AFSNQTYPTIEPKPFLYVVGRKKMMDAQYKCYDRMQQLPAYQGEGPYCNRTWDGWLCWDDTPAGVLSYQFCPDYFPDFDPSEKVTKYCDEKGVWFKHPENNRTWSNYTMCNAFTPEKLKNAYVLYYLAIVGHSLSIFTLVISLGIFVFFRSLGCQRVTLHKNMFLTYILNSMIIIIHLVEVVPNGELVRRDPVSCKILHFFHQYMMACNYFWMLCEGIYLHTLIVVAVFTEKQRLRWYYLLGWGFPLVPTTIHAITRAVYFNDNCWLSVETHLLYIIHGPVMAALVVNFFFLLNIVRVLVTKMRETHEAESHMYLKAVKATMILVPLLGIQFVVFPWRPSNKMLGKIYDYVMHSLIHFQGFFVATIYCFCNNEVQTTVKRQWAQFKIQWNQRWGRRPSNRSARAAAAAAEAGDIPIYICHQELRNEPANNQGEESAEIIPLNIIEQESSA
T3 sequence (looked up) 2: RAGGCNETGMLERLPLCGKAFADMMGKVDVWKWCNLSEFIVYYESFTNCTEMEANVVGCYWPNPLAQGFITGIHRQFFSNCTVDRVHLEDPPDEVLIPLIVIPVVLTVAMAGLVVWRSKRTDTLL

Experiment [4] has as its target T1, human GLP-1 receptor. This is another data set of the same source.
In experiment [5] the target is T2, human GIP receptor. This is another data set of the same source.
Experiment [6] addresses T3, human amylin-3(a) receptor. This is another data set of the same source.

Numbered stars: 1 amine (or outer) side, 2 acyl side, 3 side chain; on linkers, the order of the positions; unused ones are H or OH. Square brackets hold non-standard residues; d marks the D form. Side chains are listed from the residue outwards. * marks the point of attachment. C20 diacid = O=C(O)CCCCCCCCCCCCCCCCCCC(=O)*; C18 diacid = O=C(O)CCCCCCCCCCCCCCCCC(=O)*; γGlu = O=C(O)[C@H](CCC(=O)[*:2])N[*:1]; Chem. 28 = not defined here; Chem. 29 = not defined here; AEEA = NCCOCCOCC(=O)O; Aib = CC(C)(N)C(=O)O

B1: Compound 113 (peptide)
peptide: Y[Aib]EGTFTSDYSILLEEQAAREFIEWLLAGGPSSGAGQAPGQAPGASHLSTAQTARLSAELHK([AEEA-AEEA-γGlu-C18 diacid])LATLPRTETGSGSP-NH2
For the molecule B1, the “hGLP-1R Potency, no HSA, EC50 [pM]” value in the experiment with human GLP-1 receptor [1] is 14.4 pM. For the same molecule, in the experiment with human GIP receptor [2], the “hGIPR Potency, no HSA, EC50 [pM]” value was 2.02 pM. For the same molecule, the “hAMYR3 Potency, no HSA, EC50 [pM]” value in experiment [3] is 2.53 pM. For the same molecule, the “hGLP-1R Potency, 1% HSA, EC50 [pM]” value with human GLP-1 receptor [4] came to 57.5 pM. In addition, in the experiment with human GIP receptor [5], the “hGIPR Potency, 1% HSA, EC50 [pM]” value turned out to be 8.96 pM. In experiment [6], the “hAMYR3 Potency, 1% HSA, EC50 [pM]” value is 136 pM.

B2: Compound 105 (peptide)
peptide: Y[Aib]EGTFTSDYSILLEEQAAREFIEWLLAGGPSSGALQAPGQAPLASHLSTAQTARLSAELHK(Chem. 28)LATLPRTETGSGSP-NH2
modifications: reading uncertain
For B2, the “hGLP-1R Potency, no HSA, EC50 [pM]” value in the experiment with human GLP-1 receptor [1] was found to be 12.6 pM. For the same molecule, the “hGIPR Potency, no HSA, EC50 [pM]” value in the experiment with human GIP receptor [2] was determined as 3.08 pM. The “hAMYR3 Potency, no HSA, EC50 [pM]” value in experiment [3] is 2.88 pM. For the same molecule, the “hGLP-1R Potency, 1% HSA, EC50 [pM]” value with human GLP-1 receptor [4] is 48.9 pM. Also, in the experiment with human GIP receptor [5], the “hGIPR Potency, 1% HSA, EC50 [pM]” value worked out at 12.5 pM. Further, the “hAMYR3 Potency, 1% HSA, EC50 [pM]” value in experiment [6] was found to be 113 pM.

B3: Compound 14 (peptide)
peptide: H[Aib]HGTFTSDYSILLEEQAAREFIEWLLAGGPSK([AEEA-AEEA-γGlu-C18 diacid])GAPPPSGGGGASELSTAALGRLSAELHRLATLPRTETGSGSP-NH2
Turning to B3, the “hGLP-1R Potency, no HSA, EC50 [pM]” value with human GLP-1 receptor [1] was determined as 2.05 pM. Besides, the “hGIPR Potency, no HSA, EC50 [pM]” value in the experiment with human GIP receptor [2] was 5.84 pM. The “hAMYR3 Potency, no HSA, EC50 [pM]” value in experiment [3] was found to be 2.21 pM. The “hGLP-1R Potency, 1% HSA, EC50 [pM]” value with human GLP-1 receptor [4] was 75.9 pM. In addition, the “hGIPR Potency, 1% HSA, EC50 [pM]” value in the experiment with human GIP receptor [5] is 254 pM. The “hAMYR3 Potency, 1% HSA, EC50 [pM]” value in experiment [6] came to 33.4 pM.

B4: Compound 11 (peptide)
peptide: Y[Aib]EGTFTSDYSILLEEQAAREFIEWLLAGGPSK(Chem. 29)GEASELSTAALGRLSAELHELATLPRTETGSGSP-NH2
modifications: reading uncertain
Take B4: in the experiment with human GLP-1 receptor [1], the “hGLP-1R Potency, no HSA, EC50 [pM]” value was 10.4 pM. Further, the “hGIPR Potency, no HSA, EC50 [pM]” value with human GIP receptor [2] stood at 1.69 pM. Moreover, in experiment [3], the “hAMYR3 Potency, no HSA, EC50 [pM]” value is 12.8 pM. Also, the “hGLP-1R Potency, 1% HSA, EC50 [pM]” value with human GLP-1 receptor [4] was 204 pM. Besides, the “hGIPR Potency, 1% HSA, EC50 [pM]” value with human GIP receptor [5] is 58.3 pM. The “hAMYR3 Potency, 1% HSA, EC50 [pM]” value in experiment [6] worked out at 211 pM.

B5: Compound 110 (peptide)
peptide: Y[Aib]EGTFTSDYSILLEEQAAREFIEWLLAGGPSSGAPPPSGGGEASHLSTAQTQRLSAK([AEEA-AEEA-γGlu-C20 diacid])LHRLATLPRTETGSGSP-NH2
modifications: not fully specified
With B5, the “hGLP-1R Potency, no HSA, EC50 [pM]” value in the experiment with human GLP-1 receptor [1] came to 107 pM. In the experiment with human GIP receptor [2], the “hGIPR Potency, no HSA, EC50 [pM]” value was determined as 8.01 pM. Further, the “hAMYR3 Potency, no HSA, EC50 [pM]” value in experiment [3] is 3.27 pM. The “hGLP-1R Potency, 1% HSA, EC50 [pM]” value in the experiment with human GLP-1 receptor [4] came to 169 pM. Besides, in the experiment with human GIP receptor [5], the “hGIPR Potency, 1% HSA, EC50 [pM]” value amounted to 29.3 pM. The “hAMYR3 Potency, 1% HSA, EC50 [pM]” value in experiment [6] was 94 pM.

B6: Compound 114 (peptide)
peptide: Y[Aib]EGTFTSDYSILLEEQAAREFIEWLLAGGPSSGAGQAPGQAPGASHLSTAALARLSAELHK([AEEA-AEEA-γGlu-C18 diacid])LATLPRTETGSGSP-NH2
On to B6, for which the “hGLP-1R Potency, no HSA, EC50 [pM]” value in the experiment with human GLP-1 receptor [1] came out at 43.3 pM. Further, the “hGIPR Potency, no HSA, EC50 [pM]” value with human GIP receptor [2] is 4.29 pM. The “hAMYR3 Potency, no HSA, EC50 [pM]” value in experiment [3] came out at 2.27 pM. The “hGLP-1R Potency, 1% HSA, EC50 [pM]” value in the experiment with human GLP-1 receptor [4] stood at 126 pM. Also, in the experiment with human GIP receptor [5], the “hGIPR Potency, 1% HSA, EC50 [pM]” value stood at 17.2 pM. Besides, the “hAMYR3 Potency, 1% HSA, EC50 [pM]” value in experiment [6] is 45.2 pM.

B7: Compound 111 (peptide)
peptide: Y[Aib]EGTFTSDYSILLEEQAAREFIEWLLAGGPSSGAGQAPGQAPGASHLSTAQTQRLSAELHRLK([AEEA-AEEA-AEEA-γGlu-C18 diacid])TLPRTETGSGSP-NH2
On to B7, for which the “hGLP-1R Potency, no HSA, EC50 [pM]” value in the experiment with human GLP-1 receptor [1] came to 15.9 pM. The “hGIPR Potency, no HSA, EC50 [pM]” value with human GIP receptor [2] is 3.66 pM. In addition, the “hAMYR3 Potency, no HSA, EC50 [pM]” value in experiment [3] was determined as 3.33 pM. In addition, the “hGLP-1R Potency, 1% HSA, EC50 [pM]” value with human GLP-1 receptor [4] was 34.8 pM. Further, the “hGIPR Potency, 1% HSA, EC50 [pM]” value with human GIP receptor [5] came out at 12.2 pM. The “hAMYR3 Potency, 1% HSA, EC50 [pM]” value in experiment [6] was 66.4 pM.
